Measured values published in a protein production outcome set (Wang et al. 2014).

Experiment: label from the status in PepcDB records

Row | Sequence | protein production
1 | MERSALVTGGASGLGRAAALALKARGYRVVVLDLRREGEDLIYVEGDVTREEDVRRAVARAQEEAPLFAVVSAAGVGLAEKILGKEGPHGLESFRRVLEVNLLGTFNVLRLAAWAMRENPPDAEGQRGVIVNTASVAAFEGQIGQAAYAASKGGVVALTLPAARELAGWGIRVVTVAPGLFDTPLLQGLPEKAKASLAAQVPFPPRLGRPEEYAALVLHILENPMLNGEVVRLDGALRMAPR | not failed
2 | MIPLSPDTLLAARLLAEGDLAGALRAAQAGLQAEPGNAPLWNLLGVCAARLGQAALAEQCWRQALSLDPATPDAHYNLGCLASERDDAAAADAHYRAELARDPDHCSSLGNLGNLLQDAGRLDEAETCFRRRLAIQPGAAAHYQLGRLLAERGRNGEAEAQLRACLDETPDDVEALQLLGRLLEERGEAGEAEAMLRRALESAPGHAAAGNNLGLLLMAQRRWDEAESPLRAAHAAQPGAALPNLASLLLATGRAAEAETLARQALAAEPGRADWLNLLGLALREQGRDEEAGLAWEQGLASVPDHRRLRQNLGYLQLARGDWAAGWAHHEARLESAVYPALPSPRWQGESLAGRRLLVLFEQGYGDAIQFSRYLNPLLEQGAARVVALCREPLSPLFSRQWPQVAWLAMGSGYPAAFPPHDCHVFSMSLPWALRDFEPRAETYLQADPALRQAWRARLPPGRNIGLVWRRPAPSTRSTIAVPCRGRRLCCRCWPIPAPTGFRCSRSRPMSNANGCSNMAWRSGVPNWGISPTARRCWRNWTAWWPWTPRWRTWRARWACLAGCCWPASMWTGAGDGMAKRRRGTTRFVCSAKGAARDGARRSPGCERRNAQRSRLPGCISRSRSDGCLMLRIRK | failed
3 | KKAVINDSNTPLHLLQPAYQGTYGDLTPEQVKKDIDRVFAYIDKETPARVVDKNTGKVITDYTAMGDEAQLERGAFRLASYEWGVTYSALIAAAETTGDKRYTDYVQNRFRFLAEVAPHFKRVYEEKGKTDSQLLQILTPHALDDAGAVCTAMIKLRLKDESLPVDGLIQNYFDFIINKEYRLADGTFARNRPQRNTLWLDDMFMGIPAVAQMSRYDKEAKNKYLAEAVKQFLQFADRMFIPEKGLYRHGWVESSTDHPAFCWARANGWALLTACELLDVLPEDYPQRPKVMDYFRAHVRGVTALQSGEGFWHQLLDCNDSYLETSATAIYVYCLAHAINKGWIDAIAYGPVAQLGWHAVAGKINEEGQVEGTCVGTGMAFDPAFYYYRPVNVYAAHGYGPVLWAGAEMIRLLNTQHPQMNDSAVQYYQEKQKTTAPIFAVDSE | not failed
4 | MRHDDARGRPGTRIAWRATFAAKRGEALRADHLRYRPQAGSPGALHCFVLDCSASMLTAERLARAKGLVVALFDSLARERADAALVCFGGNSAGVRFGPAVPRWWNERWLAPVGAGGGTPLARGIGAATRLLARAARRRPRQQRWLWLLSDGRTTEAPARPAFADRIVIVDFDDAAVRLGRCERLAHAWGAALVTPQALERGGG | failed
5 | MSLMQLQLTQEWDKTFPLSAKVEHRKVTFANRYGITLAADLYLPKNRGGDRLPAIVIGGPFGAVKEQSSGLYAQTMAERGFVTLAFDPSYTGESGGQPRNVASPDINTEDFSAAVDFISLLPEVNRERIGVIGICGWGGMALNAVAVDKRIKAVVTSTMYDMTRVMSKGYNDSVTLEQRTRTLEQLGQQRWKDAESGTPAYQPPYNELKGGEAQFLVDYHDYYMTPRGYHPRAVNSGNAWTMTTPLSFMNMPILTYIKEISPRPILLIHGERAHSRYFSEIAYAAAAEPKELLIVPGASHVDLYDRLDRIPFDRIAGFFDEHLEGHHHHHH | not failed
6 | MSLELGQAMVTVAGIGCRKGAASDAIIAAVRAAERAFGVTVDYLATAPLKADEAGLAEAAKGLSLSLEIVAQERLEAVAAETMTFSQASLDHSGSPSVSEAAALAAAGAGARLVAPRLVVGDVTVAIAMTSDAPHGSRSAIEYGEQEEGHHHHHH | not failed
7 | MITRSEIFEYAEKTFGAKPDYPFKTYPHYAILRHLDDQKWFGLVMNVPKDKLGLEGEGDVDVIDIKCHPDKVHDLKIKAGFLPAYHMNKEHWLTAVLDGSVTKEEVFSLLAESYELTK | failed
8 | MTKLERMEHPAYSQLRPVTPSASVVLCPNPGYSSLEGTNSWVIRAPEDPRSIVIDPGPEDEGHLNVLHSKAEEVGLILLTHRHYDHADGAQRFRQLTNAPVRAMDPSYCAGAEEIHDGEIITIDGVTPQIEVVATPGHTRDSVSYFIWSGVPHESTLEGIVSGDTIAGRHTTMISETDGDLGEYLNSLAILEERGKDIPLLPGHGPDGQDVSSFARKYIERRELRLNQIREVWETRGRDVSMKDLIDAIYDDVDPVLRGAAEQSTHVAIRYLQAQEASASN | failed
9 | MNIPVEVEVAEVLTDSAATGIFEPGDKLLSIDGTAISTPGDAQTIVRSKAPGDEITISYERNDAESQATITLREHPLEHHHHHH | failed
10 | MLSTTTIGFPRIGNQRQLKFAMESYFKGDSGEAELLAVAHKVQSDAWALQKAAGIAVIGLDGTLYDQVLDTITWLGAIPPRFKHLSGLQRYYAMARGGAALDMSKFFDTNYHYLVPELGPDVLGPATAAGAPLQPDFSGPLDKLARGQAVVGRERAVPILIGPVTFVSLSRGCELPLDQAVARLLPTYCALLQQLAAAGAPEVQLHEPVLATSEGAGMRAEFETAYAQMAQAAGSVPLHLVTYYDDLGAAYPWAVQLPVAAVTLDFLGPPGAAVPSQTLALLQQHGFPADKRLGAGVVDGRSVWKDDGTAVALLRALLDTGAVSSDRLVVTSSAPLQHLPYDLGLELEAPKTPEAEPHLPPALAARLGFAKQKVEEIVSVARLAASPAAAAAAAGHGAVVQLQRLQQGKGVEDHTADIPAEWFSRPKPYDVRREQQLQLPAFPTTTIGSFPQTAEVRRLRQQLKSGRLTQAEYEGLIAGHIAHAVGVQEALGIDVLVHGEAERTDMVEYFGMQLGGMLFTRAGWVQSYGSRCVRPPLVVDDITYRGPMTCWEYKVASAYTRKPVKGMLTGPVTILNWSFPRKDISRAAQAMQLGLALRQEVAALEAAGCTIIQVDDPALREGLPLKRERWASYLSWAVDAFRLCTGVAAAGTQVVTHLCYSDFQDILPAIDRMDADVLTIENSRSDNAMMAALAAAGYGRDIGPGVYDVHSPVVPSVEFIKSRIRSFVDSGILSGRYDRIWVNPDCGLKTRGWPETIAALRNMVEAAAQARAELQLAGGAAVAPVAGGVEAAGKGAALGAAAGTSRCVDCCH | not failed
11 | MKAYQNILVAIDGSGADDALIEQVSALAAPLGSRVHLLHVVHSHTIDQERALREQAGEFLERYRAAMQQQGIEAEVLIRSGEPDREILKEIEERRYDLLAMAAHGHRLFSRLLFGSVSRALRNKIDIPLLLVRGEAR | failed
12 | MNWVAPIKDQETLKNFGETLKQVDYKYYIMFELGVGTGLQLQDILAFKNKDVTGKKEIEVTIGTRNMKNVFTVPEELQQIINEYTKGKDPEAYLILGHSSSNKPVSREQAYRVLRSAGHKIGLNSIGAQTMRKTYAWNYYKETGDIYHLQKLFNHASPSITYRFIGEKPNIEVFLKKMTPQENERSRYLLYLNDNGKKKLNKIIDILTGIRDNFDSPANNDAFYGKVDCLLQELEALMENYENTK | failed
13 | MNQRIETITALLDEKKAFDITHIDLSKTPYLVEDVIIATTLANKHALSLLDALKNTLKPLGEVFYQIDESNEEWIILDLGDLMIHLFTEECRKKFDLEGFLNAYKRGLPYQNA | failed
14 | MVNPTIPDDLLAKIAKTVAHKCWWDLQPLLRSGRRGRDVVYRPDVLKGANIFSMCEDPDDYQVDGSHHPSGPQEEGRHRAFFKRCVDAGNPTTMYFEALCVLTHERDIKGAINLLRPHVPSQAHATLACAILYIIDGNDYMGAIFLNLFGRNHYPLGTEETRDLCEEFLEDLKKFRPPYNNTYGSTFSYPNSHGIKTPDCALLCYIVSGPFKNVCNCCYLWWCARRVSQML | failed
15 | MNSNANNTPIAIGISQVFPCSYLDGQQEQLLVIQEETLDPILFERLLAIGFRRSGSAIYKPRCPRCSACQPIRVPIQEFVPSKRQKRTLAHNRDLTWRITTEHTETQYALYEKYIRERHFDGPMYPPSKAQYEQFLFCHWLPPTFIEVYDDNRLVAVAVTDTLPNSFSAIYSYFDPDEERRSLGVLLILLQCRLAKLQGKAFLYLGYQIDANRKMSYKRLYRPYQILTHQGWEYSQVCLEHHHHHH | failed
16 | MLRFMVRSFASLAISSAYSIPIGLSSVTSILDEDTIIERVCYGYLKCNATCSTEIVIVNYSITLNMSDDVVVKLLNDGYFSLDAGAYFGVVPKAIWSRKFQEIDNTVRLATNVLYITESDGTSILVDSGIGNKFDDKFRKIYRVEKQSDIYEYIRLHGDPNSVRMIINSHLHFDHVGHNADFKNAYAYAQADEFKAARYRNYITKANYRLSASQIKNKVEIGGSKRINGFIRVIKTDGHTPGHQVILINAGGRKIMYFGDIVPSTFHLKLPYRTAIDLDPLKTIEFKKNLVKMAIRENYICIFNHDVETPAAILSGDYSDPKYVKVDI | failed
17 | MSGLDATIINTAIPAIVSDLHGIQYMGWIVACFLLGMSVSVPIWSKLGERMGNKFAFELSLVLFILGSVLEGVAPDIYFFLISRVLMGVGAGGMGSLPYVIVGFIYPNIKRRTVILSYIAASFSAACIAGPLVGGWIVDALSWHWVFYINVPLGLISIILSIAFYRDAHKSKEKVQFDKMGAFTLIAGLTCFLIGIQMLGLASNVMVALFVIVGIILLISFIFIEKKAKSPIVPLSVFLNKALVGDFVLFALAWGAYIAVNTYLPMWSQAILGTSALIGGMTLIPNSILDIAGSQTAPYFLRRFSNYHLLIVDFTLIAITILGLILVPLNTSYWILMLIAAFSGLGVGSIFVILQIKVQIDASEKDMAPATSLSFLIRILAQTIMAAIYGVIMNLALARGIAGHRGITMTMMNKLSDAESAKSLPTAMLPTMRTIFHSGIIEIMCVALFLVVCAYVINFIYNRKEAKKVAE | failed
18 | MSLDLSLNNLYSISTVELIQAFANTPASVTSLNLSGNSLGFKNSDELVQILAAIPANVTSLNLSGNFLSYKSSDELVKTLAAIPFTITVLDLGWNDFSSKSSSEFKQAFSNLPASITSLNLRGNDLGIKSSDELIQILAAIPANVNSLNLRGNNLASKNCAELAKFLASIPASVTSLDLSANLLGLKLEHHHHHH | failed
19 | MRTTADRIRHTVGFELIGLLIFAPLASLVFGYALHQMGLVGAVASLIAAVWNYVYNILFDRGMLRFTGQLRKTPAIRVLHAILFEGGLLLVFLPSVAWYLDMTLLDAFIMDIAVAGFYMVYALVYNWVYDAVFPIPGLKAKEDSQPADCPSAN | failed
20 | MLQPGGTPTKIVCLTQVVTADDLRDDAEYADIMEDMSQEGGKFGNLVNVVIPRPNPDHDPTPGVGKVFLEYADVDGSSKARSGMNGRKFGGNQVVAVYYPEDKYAQGDYED | failed
21 | MGHHHHHHSHDPFAHLPKSTFVLDEFKRKYSNEDTLSVALPYFWEHFDKDGWSLWYSEYRFPEELTQTFMSCNLITGMFQRLDKLRKNAFASVILFGTNNSSSISGVWVFRGQELAFPLSPDWQVDYESYTWRKLDPGSEETQTLVREYFSWEGAFQHVGKAFNQGKIFK | not failed
22 | MKRLPLLAALPLLCASALSAQPLMSVGYFNGGGDVTAGPGGDIDKLDVRQITHLNYSFGLIYNDEKDETNAALKDPAHLHEIWLSPKVQADLQKLPALRKQNPDLKVLLSVGGWGARGFSGAAATAESRAVFIRSAQKIIQQYGLDGIDLDWEFPVNGAWGLVASQPADRDNFTALLKSLREAVGEQKLVTIAVGANAESPKSWVDVKAVAPVLNYINLMTYDMAYGTQYFNSNLYDSSHWPTVAAADKYSADFVVNNYLAAGLKPSQMNLGIGFYGRVPKRAVEPGIDWTKADAQNNPVTQPYFGPQQIALFASLGYDLSKDTYVKYNDIVGKLLNDPQKRFTEHWDDEAKVPWLSVQSAEGKPLFALSYENPRSVAIKADYIKAKGLAGAMFWEYGADDQNQLARQLAESLGIKH | not failed
23 | MSLPANKLVFVGGMGAGKTTAVRSISDVEPVSTEMPLSQDAYGDKTYTTVALDYSSIELEDGELLHVYGVPGQKYLDFMWPLVCDGALGVIVLTNARDPQMLTATLELLREFSQIAPEASLAVGITMTDEVEDFLVPPFREALVAEGFRVPVMRVDARSATQITFLVKSLLSYRYTSATSLEHHHHHH | not failed
